Experimental data published in patent publication US20030219740.

Columns and labels:
[1] = target: carboxyl terminal APC fragment (UniProt P25054)
Sequence of carboxyl terminal APC fragment (P25054 2168-2843): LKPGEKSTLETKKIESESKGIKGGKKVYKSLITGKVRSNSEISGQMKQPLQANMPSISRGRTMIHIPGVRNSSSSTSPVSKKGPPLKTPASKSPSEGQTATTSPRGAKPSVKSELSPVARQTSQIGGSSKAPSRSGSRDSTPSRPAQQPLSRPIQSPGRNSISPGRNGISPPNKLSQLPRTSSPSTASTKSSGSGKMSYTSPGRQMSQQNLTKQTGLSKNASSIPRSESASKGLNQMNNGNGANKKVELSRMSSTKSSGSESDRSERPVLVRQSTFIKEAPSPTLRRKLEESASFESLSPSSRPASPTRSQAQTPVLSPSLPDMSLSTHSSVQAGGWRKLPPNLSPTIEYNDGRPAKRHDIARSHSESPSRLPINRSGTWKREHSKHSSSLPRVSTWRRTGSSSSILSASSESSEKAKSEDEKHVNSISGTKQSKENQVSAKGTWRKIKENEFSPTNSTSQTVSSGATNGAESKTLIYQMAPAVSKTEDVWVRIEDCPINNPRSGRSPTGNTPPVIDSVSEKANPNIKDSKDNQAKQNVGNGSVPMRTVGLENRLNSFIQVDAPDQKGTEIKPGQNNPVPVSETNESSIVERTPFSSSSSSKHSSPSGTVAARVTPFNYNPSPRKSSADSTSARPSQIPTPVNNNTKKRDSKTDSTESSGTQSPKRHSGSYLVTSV

B1: CATX-2 protein (enzyme)
chain: MNSRPRRRDIDRLEHLHLTEFGLKLGQKIFLLNKRDFILFLSLF
- phosphorylation in vitro (γ-32P) [1]: CATX-2 protein could phosphorylate histone 5 µg, poly-threonine 5 µg, and COOH-APC fragment (1-5 µg)
- phosphorylation in vitro (γ-32P) (histone): CATX-2 protein could phosphorylate histone 5 µg
- phosphorylation in vitro (γ-32P) (poly-threonine): CATX-2 protein could phosphorylate histone 5 µg, poly-threonine 5 µg
